Experimental data: PMC5650360, “Maslinic acid promotes autophagy by disrupting the interaction between Bcl2 and Beclin1 in rat pheochromocytoma PC12 cells” (Oncotarget, 2017)

Target: T1, rat Beclin1 BH3 domain and Coiled Coil domain (residues 100-266) (rat, UniProt Q91XJ1 100-266)
T1 construct: Beclin1, rat, BH3 domain and coiled coil domain, residues 100-266; Cloned in a modified pET32 vector with a human rhinovirus 3C protease site and without thioredoxin; source: E. coli BL21 (DE3), purified (HisTrap HP, 3C cleavage, Superdex 75)
T1 sequence (Q91XJ1 100-266): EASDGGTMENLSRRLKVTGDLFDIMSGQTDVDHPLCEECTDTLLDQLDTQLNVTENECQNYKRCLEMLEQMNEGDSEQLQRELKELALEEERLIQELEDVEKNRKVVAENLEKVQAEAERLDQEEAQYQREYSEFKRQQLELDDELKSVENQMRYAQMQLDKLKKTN
Assay: ITC; 200 μM Beclin1 injected (2 μl aliquots) into 200 μl of 20 μM Bcl2, 50 mM Tris pH 8.0, 150 mM NaCl, Auto-iTC200, without MA
Details: both partners purified

- Kd: ~7.3 µM
B1: BH3 motif containing region of rat Bcl2 (residues 1-156), un-tagged version (domain or fragment, UniProt P49950 1-156, looked up)
chain: MAQAGRTGYDNREIVMKYIHYKLSQRGYEWDTGDEDSAPLRAAPTPGIFSFQPESNRTPAVHRDTAARTSPLRPLVANAGPALSPVPPVVHLTLRRAGDDFSRRYRRDFAEMSSQLHLTPFTARGRFATVVEELFRDGVNWGRIVAFFEFGGVMCV
notes: Bcl2, rat, BH3 motif containing region, residues 1-156; Cloned as a GST fusion in a modified pET32 vector with a 3C protease site
